Experimental data published in US20260116951A1.

Legend:
[1] = target: Human CD200R, full length, on transduced U937 cells (U937-CD200R) (human) (UniProt Q8TD46); assay: cell-based or functional assay
[2] = target: Recombinant Human CD200R, His-tagged (Creative Biomart CD200R1-320H) (human) (UniProt Q8TD46); assay: SPR, CD200R flowed over immobilized CD200-Fc, 25 C, 1:1 fit
[3] = target: Recombinant Cyno CD200R, His-tagged (Creative Biomart CD200R1-3483C) (cynomolgus monkey); assay: SPR, cyno CD200R1 flowed over immobilized CD200-Fc, 25 C, 1:1 fit
[4] = target: Recombinant Human CD200R, His-tagged (Creative Biomart CD200R1-320H) (human) (UniProt Q8TD46); assay: SPR (BIAcore T200), CD200-Fc captured on anti-human Fc, CD200R flowed, 25 C, 1:1 fit
[5] = target: Recombinant Cyno CD200R, His-tagged (Creative Biomart CD200R1-3483C) (cynomolgus monkey); assay: SPR (BIAcore T200), CD200-Fc captured on anti-human Fc, cyno CD200R flowed, 25 C, 1:1 fit
[6] = target: Recombinant Human CD200R, His-tagged (Creative Biomart CD200R1-320H) (human) (UniProt Q8TD46); assay: SPR (BIAcore T200), CD200-Fc captured on anti-human Fc, CD200R flowed, 25 C, 1:1 fit, mean of two runs
[7] = target: Recombinant Human CD200R, His-tagged (Creative Biomart CD200R1-320H) (human) (UniProt Q8TD46); assay: SPR, CD200R flowed over immobilized CD200-Fc, 25 C, 1:1 fit, mean of 2 experiments with standard deviation
[8] = target: Recombinant Cyno CD200R, His-tagged (Creative Biomart CD200R1-3483C) (cynomolgus monkey); assay: SPR (BIAcore T200), CD200-Fc captured on anti-human Fc, cyno CD200R flowed, 25 C, 1:1 fit, mean of two runs
[9] = target: Recombinant Cyno CD200R, His-tagged (Creative Biomart CD200R1-3483C) (cynomolgus monkey); assay: SPR, cyno CD200R1 flowed over immobilized CD200-Fc, 25 C, 1:1 fit, mean of 2 experiments with standard deviation
[10] = target: Recombinant Human CD200R, His-tagged (Creative Biomart CD200R1-320H) (human) (UniProt Q8TD46); assay: SPR (BIAcore), DS-155 captured (0.5 ug/mL), HuCD200R1 flowed at 500 nM to 31.25 nM, 25 C, 1:1 Binding model, run 1
[11] = target: Recombinant Human CD200R, His-tagged (Creative Biomart CD200R1-320H) (human) (UniProt Q8TD46); assay: SPR (BIAcore), DS-155 captured (0.5 ug/mL), HuCD200R1 flowed at 500 nM to 31.25 nM, 25 C, 1:1 Binding model, run 2
[12] = target: Recombinant Cyno CD200R, His-tagged (Creative Biomart CD200R1-3483C) (cynomolgus monkey); assay: SPR (BIAcore), DS-155 captured (0.5 ug/mL), CynoCD200R1 flowed at 1000 nM to 62.5 nM, 25 C, 1:1 Binding model, run 1
[13] = target: Recombinant Cyno CD200R, His-tagged (Creative Biomart CD200R1-3483C) (cynomolgus monkey); assay: SPR (BIAcore), DS-155 captured (0.5 ug/mL), CynoCD200R1 flowed at 1000 nM to 62.5 nM, 25 C, 1:1 Binding model, run 2

Recombinant Human CD200R, His-tagged (Creative Biomart CD200R1-320H) (human), sequence (Q8TD46 27-266 limits assumed): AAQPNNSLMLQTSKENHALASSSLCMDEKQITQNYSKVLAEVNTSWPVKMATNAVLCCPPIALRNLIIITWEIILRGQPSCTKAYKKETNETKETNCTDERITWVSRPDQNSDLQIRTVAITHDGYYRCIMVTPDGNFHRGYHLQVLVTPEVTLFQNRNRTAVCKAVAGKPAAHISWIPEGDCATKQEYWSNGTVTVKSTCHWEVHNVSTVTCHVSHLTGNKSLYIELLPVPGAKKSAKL
Human CD200R, full length, on transduced U937 cells (U937-CD200R) (human), sequence (Q8TD46 25-348): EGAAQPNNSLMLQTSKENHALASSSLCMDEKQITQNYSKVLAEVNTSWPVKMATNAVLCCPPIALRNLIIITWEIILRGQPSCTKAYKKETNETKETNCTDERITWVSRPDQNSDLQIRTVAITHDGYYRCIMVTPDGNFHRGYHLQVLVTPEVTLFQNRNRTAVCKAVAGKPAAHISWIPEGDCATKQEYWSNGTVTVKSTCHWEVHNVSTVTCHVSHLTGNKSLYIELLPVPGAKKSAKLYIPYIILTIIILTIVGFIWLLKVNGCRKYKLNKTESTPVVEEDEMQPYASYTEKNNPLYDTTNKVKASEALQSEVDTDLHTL

DS-155 (wild-type human CD200-Fc, IgG4 S228P Fc) (from UniProt P41217 31-232) (Fc fusion)
inhibition of LPS stimulated IL-6 release from U937-CD200R cells, IC50 [1]: 0.18 µg/mL | T1/2 [2]: 21.1 s | T1/2 [3]: 11.8 s | t½ [4]: 21.1 s | t½ [5]: 11.8 s | Kd [6]: 0.179 µM | koff [6]: 0.0326 s⁻¹ | kon [6]: 183000 M⁻¹ s⁻¹ | Kd [7]: 0.179 µM | Kd [8]: 0.971 µM | koff [8]: 0.0586 s⁻¹ | kon [8]: 60600 M⁻¹ s⁻¹ | Kd [9]: 0.971 µM | Kd [10]: 0.174 µM | koff [10]: 0.0324 s⁻¹ | kon [10]: 186000 M⁻¹ s⁻¹ | Kd [11]: 0.183 µM | kon [11]: 180000 M⁻¹ s⁻¹ | Kd [12]: 0.888 µM | koff [12]: 0.0564 s⁻¹ | kon [12]: 63500 M⁻¹ s⁻¹ | Kd [13]: 1.05 µM | koff [13]: 0.0608 s⁻¹ | kon [13]: 57600 M⁻¹ s⁻¹
